Assay results from paper PMC5551578 (The Journal of Experimental Medicine, 2017).

Each binder was assayed against T1, tetanus toxoid (Clostridium tetani, production strain …, UniProt P04958, biotin (biotinylated antigen)) (assay: BLI).
T1 construct: also called TT
T1 sequence (P04958 whole entry): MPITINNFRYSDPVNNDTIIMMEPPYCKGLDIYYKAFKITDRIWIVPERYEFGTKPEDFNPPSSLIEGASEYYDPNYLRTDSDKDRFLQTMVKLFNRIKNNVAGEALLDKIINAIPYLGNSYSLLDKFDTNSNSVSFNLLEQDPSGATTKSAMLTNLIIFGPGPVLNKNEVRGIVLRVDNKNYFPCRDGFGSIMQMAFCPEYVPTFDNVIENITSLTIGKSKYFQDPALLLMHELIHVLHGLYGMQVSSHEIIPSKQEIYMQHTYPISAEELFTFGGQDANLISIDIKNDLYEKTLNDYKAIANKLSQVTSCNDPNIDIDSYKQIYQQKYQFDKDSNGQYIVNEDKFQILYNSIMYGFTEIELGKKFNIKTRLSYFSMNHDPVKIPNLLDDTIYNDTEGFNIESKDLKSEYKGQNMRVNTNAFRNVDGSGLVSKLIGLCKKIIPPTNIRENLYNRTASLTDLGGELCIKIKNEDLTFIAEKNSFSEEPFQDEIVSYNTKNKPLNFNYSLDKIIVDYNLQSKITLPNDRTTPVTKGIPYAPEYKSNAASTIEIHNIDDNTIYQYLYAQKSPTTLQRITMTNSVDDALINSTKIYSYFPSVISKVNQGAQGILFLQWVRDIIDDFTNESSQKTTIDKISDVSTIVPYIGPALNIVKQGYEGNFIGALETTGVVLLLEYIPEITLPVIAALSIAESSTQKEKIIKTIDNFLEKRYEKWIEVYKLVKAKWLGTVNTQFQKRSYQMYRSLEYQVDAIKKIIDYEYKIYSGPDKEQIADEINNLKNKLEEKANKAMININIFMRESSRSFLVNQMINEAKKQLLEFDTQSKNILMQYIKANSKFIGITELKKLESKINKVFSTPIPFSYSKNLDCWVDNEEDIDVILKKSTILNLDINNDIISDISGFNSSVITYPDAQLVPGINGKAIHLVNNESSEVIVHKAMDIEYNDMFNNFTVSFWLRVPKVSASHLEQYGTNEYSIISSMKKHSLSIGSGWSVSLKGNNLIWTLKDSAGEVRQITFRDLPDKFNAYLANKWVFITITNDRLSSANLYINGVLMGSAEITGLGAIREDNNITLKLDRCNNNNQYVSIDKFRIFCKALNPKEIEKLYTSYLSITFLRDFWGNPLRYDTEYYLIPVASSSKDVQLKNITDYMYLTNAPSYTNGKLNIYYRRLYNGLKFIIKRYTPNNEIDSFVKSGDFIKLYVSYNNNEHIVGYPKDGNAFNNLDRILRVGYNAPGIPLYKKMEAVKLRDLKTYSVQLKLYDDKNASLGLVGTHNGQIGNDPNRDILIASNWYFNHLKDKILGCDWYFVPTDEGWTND

| Binder | Kd [nM] | koff [s⁻¹] |
| --- | --- | --- |
| TT-Ab9 (antibody, V domains shown, IgG1) VH: EVQLVESGGSLVQPGGSLRLSCVGTGFTFNTYWMSWVRQAPGKGLEWVANIKQDGREKHYVDSVMGRFTVSRDNAMNALYLQVNSLRVEDTAVYYCARGMTAWSLGGYQYDYWGQGTQVTVSS VL: DIQMTQSPSSLSASVGDTVTITCRASQGIRSDLGWYQQRPGKAPKLLVYTASTLQTGVPSRFSGSGFGTDFTLTISSLQPEDFATYYCLQNYNYPRTFGQGTKVEIK | 6.64 | 0.000919 |
| TT-Ab12 (antibody, V domains shown, IgG1) VH: QVQLQESGPGLVKPSETLSLTCNVSGASISRYYWAWIRQPPGKGLEWIGYIYDSGTTTYNTSLKSRVTISRDTSKNQFSLNMMSVTAADTAVYYCARARYYYDSTGYFYGWLDPWGQGRLVTVSF VL: DIQMTQSPSTLSASVGDRVTITCRASQSINIWLAWYQQRPGKAPDLLIYKASTLQSGVPSRFSGSGSGTEFTLTISSVQPDDFATYYCQQYKSYSCSFGQGTKVEIN | 1.95 | 0.000307 |
| TT-Ab3 (antibody, V domains shown, IgG1) VH: EVQLVQSGAEVKKPGSSVKVSCKVSGGAFNSYAISWVRQAPGQGLEWMGGIIPILRTANYTEKFQGRVTINADKSTNTAYMELSKLRSEDTAVYYCARVWGTTVTKGPSQIKYYYYGMDVWGQGTTVTVSS VL: DIQMTQSPSSLSASVGDRVTISCRASQSISNYLNWYHQKPGKAPKLLIYAASSLQSGVPSRFSGSGSGTDFTLTISSLQPEDFATYYCQQSYSTPLTFGGGTKVEIK | 1.61 | 0.00013 |
| TT-Ab7 (antibody, V domains shown, IgG1) VH: EVQLVESGGGWVQPGGSLRLSCAASGFTFNSFGSYGMSWVRQAPGKGLEWVSHISASGAATYYADSVKGRFTISRDNSKNTLLLQMNDLRGEDTATYYCARSVQQYLGLLGYWGQGTLVTVSS VL: QSVLTQSPSASASLGATVKLTCTLSSGHTNYAIAWHQLQPQKAPRYLLKISNDGSHKRGDGIPDRFSGSSSGAERYLTISSLQSEDEAEYYCQTWGAGMGMFGGGTKLTVL | 0.0185 | 3.46e-06 |
| TT-Ab10 (antibody, V domains shown, IgG1) VH: EVQLVESGGGLVQPGGSLRVSCGASGFTFANFWMSWVRQAPGKGLEWVANINQDGNERKYVDSVKGRFTISRDNDKNSLYLQMNSLRAEDTAVYFCAREYGSYWRTYYFDDWGQGTLVTVSS VL: DIVMTQSPATLSLSPGERATLSCRASQSVSNYLAWYQQKPGQAPRLLIYDASNRASGTPARFSGSGFGTDFTLTISSLDPEDFAVYYCQQGSNWLTFGGGTKVEIK | 1.59 | 0.000243 |
| TT-Ab4 (antibody, V domains shown, IgG1) VH: EVQLVQSGAEMKKPGSSVKVSCRMSGGKFNNYAMSWVRQAPGQGLEWVGGIIPVLGTANYAQKFQDRVAITADKSTNTAYMELSSLRSDDTAVYYCARVWGTVVTQGPSQVQYNHYGMDVWGQGTTVTVSS VL: DIQLTQSPSSLSASVGDRVTITCRATQSISSSLNWYQHKPGKAPNLLISAASNLQSGVPSRFSGSGSRTDFTLTITNLQPEDFATYYCQQSYTTPLTFGGGTKVEIK | 0.0137 | 2.27e-06 |
